Experimental data published in paper PMC5779225.

Test: surface biotinylation, NeutrAvidin pull-down, immunoblot
Settings: glycan lost; control: wild type

Protein	localisation_or_trafficking
Frizzled3 (Fzd3): N42Q (protein) parent chain: MAVSWIVFDLWLLTVFLGQIGGHSLFSCEPITLRMCQDLPYNTTFMPNLLNHYDQQTAALAMEPFHPMVNLDCSRDFRPFLCALYAPICMEYGRVTLPCRRLCQRAYSECSKLMEMFGVPWPEDMECSRFPDCDEPYPRLVDLNLVGDPTEGAPVAVQRDYGFWCPRELKIDPDLGYSFLHVRDCSPPCPNMYFRREELSFARYFIGLISIICLSATLFTFLTFLIDVTRFRYPERPIIFYAVCYMMVSLIFFIGFLLEDRVACNASSPAQYKASTVTQGSHNKACTMLFMVLYFFTMAGSVWWVILTITWFLAAVPKWGSEAIEKKALLFHASAWGIPGTLTIILLAMNKIEGDNISGVCFVGLYDVDALRYFVLAPLCLYVVVGVSLLLAGIISLNRVRIEIPLEKENQDKLVKFMIRIGVFSILYLVPLLVVIGCYFYEQAYRGIWETTWIQERCREYHIPCPYQVTQMSRPDLILFLMKYLMALIVGIPSIFWVGSKKTCFEWASFFHGRRKKEIVNESRQVLQEPDFAQSLLRDPNTPIIRKSRGTSTQGTSTHASSTQLAMVDDQRSKAGSVHSKVSSYHGSLHRSRDGRYTPCSYRGMEERLPHGSMSRLTDHSRHSSSHRLNEQSRHSSIRDLSNNPMTHITHGTSMNRVIEEDGTSA	decreases
Frizzled3 (Fzd3): N356Q (protein) parent chain: MAVSWIVFDLWLLTVFLGQIGGHSLFSCEPITLRMCQDLPYNTTFMPNLLNHYDQQTAALAMEPFHPMVNLDCSRDFRPFLCALYAPICMEYGRVTLPCRRLCQRAYSECSKLMEMFGVPWPEDMECSRFPDCDEPYPRLVDLNLVGDPTEGAPVAVQRDYGFWCPRELKIDPDLGYSFLHVRDCSPPCPNMYFRREELSFARYFIGLISIICLSATLFTFLTFLIDVTRFRYPERPIIFYAVCYMMVSLIFFIGFLLEDRVACNASSPAQYKASTVTQGSHNKACTMLFMVLYFFTMAGSVWWVILTITWFLAAVPKWGSEAIEKKALLFHASAWGIPGTLTIILLAMNKIEGDNISGVCFVGLYDVDALRYFVLAPLCLYVVVGVSLLLAGIISLNRVRIEIPLEKENQDKLVKFMIRIGVFSILYLVPLLVVIGCYFYEQAYRGIWETTWIQERCREYHIPCPYQVTQMSRPDLILFLMKYLMALIVGIPSIFWVGSKKTCFEWASFFHGRRKKEIVNESRQVLQEPDFAQSLLRDPNTPIIRKSRGTSTQGTSTHASSTQLAMVDDQRSKAGSVHSKVSSYHGSLHRSRDGRYTPCSYRGMEERLPHGSMSRLTDHSRHSSSHRLNEQSRHSSIRDLSNNPMTHITHGTSMNRVIEEDGTSA	abolishes
Frizzled3 (Fzd3): 2NQ (protein) parent chain: MAVSWIVFDLWLLTVFLGQIGGHSLFSCEPITLRMCQDLPYNTTFMPNLLNHYDQQTAALAMEPFHPMVNLDCSRDFRPFLCALYAPICMEYGRVTLPCRRLCQRAYSECSKLMEMFGVPWPEDMECSRFPDCDEPYPRLVDLNLVGDPTEGAPVAVQRDYGFWCPRELKIDPDLGYSFLHVRDCSPPCPNMYFRREELSFARYFIGLISIICLSATLFTFLTFLIDVTRFRYPERPIIFYAVCYMMVSLIFFIGFLLEDRVACNASSPAQYKASTVTQGSHNKACTMLFMVLYFFTMAGSVWWVILTITWFLAAVPKWGSEAIEKKALLFHASAWGIPGTLTIILLAMNKIEGDNISGVCFVGLYDVDALRYFVLAPLCLYVVVGVSLLLAGIISLNRVRIEIPLEKENQDKLVKFMIRIGVFSILYLVPLLVVIGCYFYEQAYRGIWETTWIQERCREYHIPCPYQVTQMSRPDLILFLMKYLMALIVGIPSIFWVGSKKTCFEWASFFHGRRKKEIVNESRQVLQEPDFAQSLLRDPNTPIIRKSRGTSTQGTSTHASSTQLAMVDDQRSKAGSVHSKVSSYHGSLHRSRDGRYTPCSYRGMEERLPHGSMSRLTDHSRHSSSHRLNEQSRHSSIRDLSNNPMTHITHGTSMNRVIEEDGTSA	changes
